Laboratory results from publication PMC3029386, “Determinants Outside the DevR C-Terminal Domain Are Essential for Cooperativity and Robust Activation of Dormancy Genes in Mycobacterium tuberculosis”.

How the values were obtained:
[1] = molecular target: DevR (full-length) (Mycobacterium tuberculosis, UniProt P9WMF9 1-217); experiment: EMSA; settings: protein: recombinant; tags: N-terminal His6 (pAV-DevR); chain copies: 2
[2] = molecular target: DevRC (DevR C-terminal domain) (Mycobacterium tuberculosis H37Rv, UniProt P9WMF9 141-217); experiment: EMSA; settings: protein: recombinant; tags: N-terminal His6 (pET28a, pUS-DevRC); chain copies: 2
Chain of DevRC (DevR C-terminal domain) (P9WMF9 141-217): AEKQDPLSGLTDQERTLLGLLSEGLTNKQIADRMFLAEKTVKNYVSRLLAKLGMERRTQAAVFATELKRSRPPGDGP

Chain of DevR (full-length) (P9WMF9 whole entry, the tested form may be a part): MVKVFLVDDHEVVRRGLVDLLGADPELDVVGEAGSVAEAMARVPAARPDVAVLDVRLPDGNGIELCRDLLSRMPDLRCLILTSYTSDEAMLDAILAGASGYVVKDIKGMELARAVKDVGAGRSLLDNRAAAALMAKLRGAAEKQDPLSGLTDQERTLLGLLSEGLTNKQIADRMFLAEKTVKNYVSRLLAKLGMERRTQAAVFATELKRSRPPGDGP

B1: P+S box (LH1/LH2), tgs1-Rv3131 promoter (dsDNA)
DNA 1: CGAGTCGACAGAGCACGAAGGCTCGCCAGCGGAGGACCTTTGGCCCTGCGTCGACCGA
DNA 2: TCGGTCGACGCAGGGCCAAAGGTCCTCCGCTGGCGAGCCTTCGTGCTCTGGTCGACTCG
[1]
  binding result: binds
[2]
  binding result: binds
